Our source for the protein stability index values is the supplement of paper PMC10567573.

B1: BTBD1 (parent)
chain: IVGFGLYGSIHGPTDYQVNIQIIE
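Also: lentivirally expressed fusions sorted by FACS into six bins by GFP to DsRed ratio, PSI derived from sequencing read proportions per bin multiplied by bin number.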

The variants in the series derive from B1. The series is described as follows: protein stability index of a GFP-peptide fusion (GPS, HEK-293T) (PSI 1-6); higher = more stable. Particulars: c terminus: a fixed tail appended.
Take IVGFGLYGSIHGPTDYQVNKQIIE [I20K]: the protein stability index was 1.16.

IVGFGLYGSIHGPTDYQVNTQIIE [I20T]: the protein stability index is 2.13.

Consider IVGFGLYGSIHGPTDYQVNVQIIE [I20V], for which the protein stability index was 2.83. The same measure for IVGFGLYGSIHGPTDYQVNQQIIE [I20Q]: 2.58; for IVGFGLYGSIHGPTDYQVNEQIIE [I20E]: 1.46; for IVGFGLYGSIHGPTDYQVNRQIIE [I20R]: 2.12. As to IVGFGLYGSIHGPTDYQVNDQIIE [I20D], the protein stability index stood at 2.31. Regarding IVGFGLYGSIHGPTDYQVNMQIIE [I20M], the protein stability index was found to be 4.04. On to IVGFGLYGSIHGPTDYQVNCQIIE [I20C], for which the protein stability index was determined as 2.49. IVGFGLYGSIHGPTDYQVNLQIIE [I20L]: the protein stability index was determined as 3.4. The same measure for IVGFGLYGSIHGPTDYQVNPQIIE [I20P]: 2.21. As to IVGFGLYGSIHGPTDYQVNHQIIE [I20H], the protein stability index is 2.21. Turning to IVGFGLYGSIHGPTDYQVNAQIIE [I20A], the protein stability index stood at 2.29. The same measure for IVGFGLYGSIHGPTDYQVNIYIIE [Q21Y]: 3.06; for IVGFGLYGSIHGPTDYQVNIDIIE [Q21D]: 3.52.

As for IVGFGLYGSIHGPTDYQVNIEIIE [Q21E], the protein stability index is 2.68. Regarding IVGFGLYGSIHGPTDYQVNIFIIE [Q21F], the protein stability index was found to be 1.77. Turning to IVGFGLYGSIHGPTDYQVNIGIIE [Q21G], the protein stability index was 2.44.

As for IVGFGLYGSIHGPTDYQVNIIIIE [Q21I], the protein stability index stood at 2.01.

Take IVGFGLYGSIHGPTDYQVNICIIE [Q21C]: the protein stability index came out at 2.19. IVGFGLYGSIHGPTDYQVNIPIIE [Q21P]: the protein stability index amounted to 2.37. On to IVGFGLYGSIHGPTDYQVNIRIIE [Q21R], for which the protein stability index is 2.53. IVGFGLYGSIHGPTDYQVNIAIIE [Q21A]: the protein stability index was determined as 3.82. As for IVGFGLYGSIHGPTDYQVNIWIIE [Q21W], the protein stability index turned out to be 1.5. As to IVGFGLYGSIHGPTDYQVNITIIE [Q21T], the protein stability index was 2.1.

As to IVGFGLYGSIHGPTDYQVNILIIE [Q21L], the protein stability index came out at 2.66. The same measure for IVGFGLYGSIHGPTDYQVNIQGIE [I22G]: 1.91; for IVGFGLYGSIHGPTDYQVNIQAIE [I22A]: 2.07. The result for IVGFGLYGSIHGPTDYQVNIQWIE [I22W] reads 3.36. Turning to IVGFGLYGSIHGPTDYQVNIQVIE [I22V], the protein stability index was determined as 3.25. IVGFGLYGSIHGPTDYQVNIQHIE [I22H]: the protein stability index amounted to 2.4.

On to IVGFGLYGSIHGPTDYQVNIQYIE [I22Y], for which the protein stability index was 2.48. Turning to IVGFGLYGSIHGPTDYQVNIQQIE [I22Q], the protein stability index came to 3. The result for IVGFGLYGSIHGPTDYQVNIQLIE [I22L] reads 2.65; that for IVGFGLYGSIHGPTDYQVNIQDIE [I22D], 1.3; that for IVGFGLYGSIHGPTDYQVNIQNIE [I22N], 1.24. With IVGFGLYGSIHGPTDYQVNIQEIE [I22E], the protein stability index came to 2.

As to IVGFGLYGSIHGPTDYQVNIQSIE [I22S], the protein stability index worked out at 2.09.

Consider IVGFGLYGSIHGPTDYQVNIQCIE [I22C], for which the protein stability index is 4.32.

As to IVGFGLYGSIHGPTDYQVNIQPIE [I22P], the protein stability index was 3.17. With IVGFGLYGSIHGPTDYQVNIQKIE [I22K], the protein stability index amounted to 2.4. Turning to IVGFGLYGSIHGPTDYQVNIQFIE [I22F], the protein stability index is 2.84.

For IVGFGLYGSIHGPTDYTVNIQIIE [Q17T], the protein stability index was 2.53. As for IVGFGLYGSIHGPTDYNVNIQIIE [Q17N], the protein stability index was 2.98.

Turning to IVGFGLYGSIHGPTDYSVNIQIIE [Q17S], the protein stability index is 2.31. The result for IVGFGLYGSIHGPTDYFVNIQIIE [Q17F] reads 2.95. The same measure for IVGFGLYGSIHGPTDYVVNIQIIE [Q17V]: 2.48; for IVGFGLYGSIHGPTDYAVNIQIIE [Q17A]: 3.68. In the case of IVGFGLYGSIHGPTDYPVNIQIIE [Q17P], the protein stability index was determined as 1.98.

With IVGFGLYGSIHGPTDYDVNIQIIE [Q17D], the protein stability index came out at 2.09. The result for IVGFGLYGSIHGPTDYEVNIQIIE [Q17E] reads 2.95; that for IVGFGLYGSIHGPTDYRVNIQIIE [Q17R], 3.14. Regarding IVGFGLYGSIHGPTDYYVNIQIIE [Q17Y], the protein stability index was determined as 2.44. IVGFGLYGSIHGPTDYGVNIQIIE [Q17G]: the protein stability index turned out to be 4.09. Turning to IVGFGLYGSIHGPTDYCVNIQIIE [Q17C], the protein stability index came to 2.49. The same measure for IVGFGLYGSIHGPTDYKVNIQIIE [Q17K]: 2.3. For the variant IVGFGLYGSIHGPTDYQVNIQIIA [E24A], the protein stability index was found to be 2.41. The result for IVGFGLYGSIHGPTDYQVNIQIIS [E24S] reads 2.78; that for IVGFGLYGSIHGPTDYQVNIQIIK [E24K], 2.36. For the variant IVGFGLYGSIHGPTDYQVNIQIIF [E24F], the protein stability index stood at 1.72. Consider IVGFGLYGSIHGPTDYQVNIQIII [E24I], for which the protein stability index turned out to be 2.08. IVGFGLYGSIHGPTDYQVNIQIIV [E24V]: the protein stability index is 2.95. Take IVGFGLYGSIHGPTDYQVNIQIIW [E24W]: the protein stability index came out at 3.21.

In the case of IVGFGLYGSIHGPTDYQVNIQIIH [E24H], the protein stability index is 2.33.

On to IVGFGLYGSIHGPTDYQVNIQIIL [E24L], for which the protein stability index was 4.16. As for IVGFGLYGSIHGPTDYQVNIQIIY [E24Y], the protein stability index turned out to be 2.02. The result for IVGFGLYGSIHGPTDYQVNIQIIP [E24P] reads 2.89; that for IVGFGLYGSIHGPTDYQVNIQIIT [E24T], 3.78; that for IVGFGLYGSIHGPTDYQVNIQIIQ [E24Q], 2.62.

Consider IVGFGLYGSIHGPTDEQVNIQIIE [Y16E], for which the protein stability index turned out to be 2.15. As for IVGFGLYGSIHGPTDDQVNIQIIE [Y16D], the protein stability index turned out to be 2.5.

As for IVGFGLYGSIHGPTDWQVNIQIIE [Y16W], the protein stability index was 3.98. With IVGFGLYGSIHGPTDCQVNIQIIE [Y16C], the protein stability index came to 3.51.

As to IVGFGLYGSIHGPTDMQVNIQIIE [Y16M], the protein stability index was 2.38. The result for IVGFGLYGSIHGPTDHQVNIQIIE [Y16H] reads 1.6. The result for IVGFGLYGSIHGPTDGQVNIQIIE [Y16G] reads 4.04; that for IVGFGLYGSIHGPTDAQVNIQIIE [Y16A], 2.1; that for IVGFGLYGSIHGPTDTQVNIQIIE [Y16T], 4.3. IVGFGLYGSIHGPTDKQVNIQIIE [Y16K]: the protein stability index stood at 3.23.

With IVGFGLYGSIHGPTDNQVNIQIIE [Y16N], the protein stability index worked out at 2.41.

Turning to IVGFGLYGSIHGPTDLQVNIQIIE [Y16L], the protein stability index turned out to be 2.09.

IVGFGLYGSIHGPTDIQVNIQIIE [Y16I]: the protein stability index came out at 3.59. Consider IVGFGLYGSIHGPTDQQVNIQIIE [Y16Q], for which the protein stability index is 1.69.

In the case of IVGFGLYGSIHGPTDYQRNIQIIE [V18R], the protein stability index is 2.39. The result for IVGFGLYGSIHGPTDYQQNIQIIE [V18Q] reads 2.38. Regarding IVGFGLYGSIHGPTDYQLNIQIIE [V18L], the protein stability index is 3.15. With IVGFGLYGSIHGPTDYQDNIQIIE [V18D], the protein stability index was found to be 2.32. The same measure for IVGFGLYGSIHGPTDYQHNIQIIE [V18H]: 1.58; for IVGFGLYGSIHGPTDYQKNIQIIE [V18K]: 2.42. With IVGFGLYGSIHGPTDYQINIQIIE [V18I], the protein stability index is 2.72. As to IVGFGLYGSIHGPTDYQNNIQIIE [V18N], the protein stability index stood at 1.8. Regarding IVGFGLYGSIHGPTDYQENIQIIE [V18E], the protein stability index stood at 2.36. The same measure for IVGFGLYGSIHGPTDYQTNIQIIE [V18T]: 4; for IVGFGLYGSIHGPTDYQFNIQIIE [V18F]: 2.14.
